Measurements published in article PMC9979147.

Molecular target: Pertuzumab, 2 weeks stressed in PBS, pH 7.4
Experiment: SPR; Biacore T200; pertuzumab immobilized on a Series S Protein A sensor chip (145 RU); single-cycle kinetics, five sequential injections of HER2 from 1.22 to 100 nM; phosphate-buffered saline with 0.05% Tween 20; flow 30 μL/min; 1:1 binding model

Sequence of Pertuzumab, 2 weeks stressed in PBS, pH 7.4 (heavy, as listed by the source, chain 1 of 2): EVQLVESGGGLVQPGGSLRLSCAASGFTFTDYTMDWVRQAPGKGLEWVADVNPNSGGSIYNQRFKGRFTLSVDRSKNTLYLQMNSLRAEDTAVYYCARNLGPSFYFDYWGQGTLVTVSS
Sequence of Pertuzumab, 2 weeks stressed in PBS, pH 7.4 (light, as listed by the source, chain 2 of 2): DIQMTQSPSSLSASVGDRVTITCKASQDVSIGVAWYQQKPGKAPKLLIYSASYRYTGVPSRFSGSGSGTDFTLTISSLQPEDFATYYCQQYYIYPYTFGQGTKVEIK

Kd: 2.3 nM
Substance: Human HER2/ErbB2 protein, extracellular domain Thr23-Thr652, His Tag (from UniProt P04626 23-652) (domain or fragment)
